From the supplement of paper PMC9112550, “Optimization of the antimicrobial peptide Bac7 by deep mutational scanning” (BMC Biology, 2022) come the findings set out here.

In the data set the test system is Escherichia coli TOP10. Briefly: shrunken log2 fold change of peptide-encoding DNA abundance (4.5 h post-induction vs induction); higher = less antimicrobial activity (less host growth inhibition). Conditions: time post-induction: 4.5 h; library: site-saturation at positions 5, 18, 19, 20.
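Also: peptides expressed intracellularly from a pBAD plasmid library in pooled LB shake-flask culture, induced with 0.3% L-arabinose, DNA abundance read by NGS, three biological replicates, DESeq2 with apeglm shrinkage.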

With RRIRTRPPRLPRPRPRPMFIPRP, the “shrunken log2 fold change” value was -0.305.

For RRIRARPPRLPRPRPRPYYYPRP, the “shrunken log2 fold change” value is -0.602.

Regarding RRIRWRPPRLPRPRPRPPLKPRP, the “shrunken log2 fold change” value amounted to 0.415.

For the sequence RRIRPRPPRLPRPRPRPPHLPRP, the “shrunken log2 fold change” value was 0.024.

RRIRQRPPRLPRPRPRPLCSPRP: the “shrunken log2 fold change” value was -0.0385.

In the case of RRIRSRPPRLPRPRPRPPDCPRP, the “shrunken log2 fold change” value is -0.046.

For the sequence RRIRQRPPRLPRPRPRPHNKPRP, the “shrunken log2 fold change” value was -0.599.

Take RRIRWRPPRLPRPRPRPDTYPRP: the “shrunken log2 fold change” value is -0.161.

With RRIRRRPPRLPRPRPRPPEDPRP, the “shrunken log2 fold change” value is 1.34.

On to RRIRTRPPRLPRPRPRPFFWPRP, for which the “shrunken log2 fold change” value came to 0.276.

Take RRIRYRPPRLPRPRPRPNDFPRP: the “shrunken log2 fold change” value was -0.0506.

Turning to RRIRSRPPRLPRPRPRPWYHPRP, the “shrunken log2 fold change” value is -0.45.

In the case of RRIRKRPPRLPRPRPRPPIQPRP, the “shrunken log2 fold change” value is 0.304.

As to RRIRDRPPRLPRPRPRPIEQPRP, the “shrunken log2 fold change” value was determined as 0.0525.

RRIRCRPPRLPRPRPRPHQWPRP: the “shrunken log2 fold change” value worked out at 0.321.

As for RRIRNRPPRLPRPRPRPSQFPRP, the “shrunken log2 fold change” value was -0.16.

Consider RRIRGRPPRLPRPRPRPIFTPRP, for which the “shrunken log2 fold change” value was 0.284.

For RRIRIRPPRLPRPRPRPYYIPRP, the “shrunken log2 fold change” value is -0.552.

Regarding RRIRNRPPRLPRPRPRPEEQPRP, the “shrunken log2 fold change” value turned out to be 0.202.

Consider RRIRKRPPRLPRPRPRPHLNPRP, for which the “shrunken log2 fold change” value is 0.14.

Consider RRIRNRPPRLPRPRPRPFTHPRP, for which the “shrunken log2 fold change” value was -0.374.

RRIRCRPPRLPRPRPRPTPKPRP: the “shrunken log2 fold change” value turned out to be 0.877.

For RRIRIRPPRLPRPRPRPIDCPRP, the “shrunken log2 fold change” value is -0.145.

On to RRIRTRPPRLPRPRPRPITDPRP, for which the “shrunken log2 fold change” value came to 0.177.

With RRIRVRPPRLPRPRPRPNMSPRP, the “shrunken log2 fold change” value was -0.537.

For RRIRIRPPRLPRPRPRPCAPPRP, the “shrunken log2 fold change” value was -0.506.

For the sequence RRIRERPPRLPRPRPRPAYHPRP, the “shrunken log2 fold change” value was -0.223.

Take RRIRWRPPRLPRPRPRPHNGPRP: the “shrunken log2 fold change” value was -0.349.

Take RRIRRRPPRLPRPRPRPLGWPRP: the “shrunken log2 fold change” value was found to be 1.07.

Turning to RRIRCRPPRLPRPRPRPDAFPRP, the “shrunken log2 fold change” value stood at 0.467.

Turning to RRIRERPPRLPRPRPRPALLPRP, the “shrunken log2 fold change” value is -0.23.

With RRIRHRPPRLPRPRPRPHKPPRP, the “shrunken log2 fold change” value turned out to be 0.0188.

Take RRIRCRPPRLPRPRPRPRMQPRP: the “shrunken log2 fold change” value stood at 0.349.

RRIRQRPPRLPRPRPRPMFHPRP: the “shrunken log2 fold change” value is -0.815.

For RRIRMRPPRLPRPRPRPKAPPRP, the “shrunken log2 fold change” value was determined as 1.42.

Regarding RRIRDRPPRLPRPRPRPWCHPRP, the “shrunken log2 fold change” value was -0.407.

Take RRIRERPPRLPRPRPRPWFIPRP: the “shrunken log2 fold change” value was -0.00655.

Regarding RRIRRRPPRLPRPRPRPQHFPRP, the “shrunken log2 fold change” value was determined as 0.256.

Turning to RRIRGRPPRLPRPRPRPTNNPRP, the “shrunken log2 fold change” value is 0.217.

Take RRIRDRPPRLPRPRPRPVPYPRP: the “shrunken log2 fold change” value was -0.244.

Take RRIRQRPPRLPRPRPRPHVFPRP: the “shrunken log2 fold change” value is -0.000919.

Turning to RRIRDRPPRLPRPRPRPDTQPRP, the “shrunken log2 fold change” value worked out at 0.419.

With RRIRERPPRLPRPRPRPRKWPRP, the “shrunken log2 fold change” value worked out at 0.316.

On to RRIRSRPPRLPRPRPRPWWQPRP, for which the “shrunken log2 fold change” value is -0.0257.

On to RRIRVRPPRLPRPRPRPAHCPRP, for which the “shrunken log2 fold change” value worked out at 0.122.

Turning to RRIRWRPPRLPRPRPRPIWFPRP, the “shrunken log2 fold change” value was 1.96.

Turning to RRIRQRPPRLPRPRPRPSMHPRP, the “shrunken log2 fold change” value was -0.0647.

For RRIRKRPPRLPRPRPRPRSAPRP, the “shrunken log2 fold change” value is 0.884.

With RRIRIRPPRLPRPRPRPRDAPRP, the “shrunken log2 fold change” value was 0.215.

Take RRIRMRPPRLPRPRPRPYTYPRP: the “shrunken log2 fold change” value was -0.398.

As for RRIRMRPPRLPRPRPRPVCTPRP, the “shrunken log2 fold change” value is 0.479.

As for RRIRSRPPRLPRPRPRPDCQPRP, the “shrunken log2 fold change” value came out at 0.117.

Consider RRIRTRPPRLPRPRPRPCAQPRP, for which the “shrunken log2 fold change” value is -0.05.

As to RRIRKRPPRLPRPRPRPMSHPRP, the “shrunken log2 fold change” value was -0.0712.

As to RRIRHRPPRLPRPRPRPQFLPRP, the “shrunken log2 fold change” value was -0.653.

For RRIRPRPPRLPRPRPRPWEFPRP, the “shrunken log2 fold change” value is -0.0818.

Consider RRIRLRPPRLPRPRPRPPGWPRP, for which the “shrunken log2 fold change” value was found to be 0.218.

Consider RRIRPRPPRLPRPRPRPRRYPRP, for which the “shrunken log2 fold change” value was -0.0175.

In the case of RRIRQRPPRLPRPRPRPDEMPRP, the “shrunken log2 fold change” value is -0.0225.

Take RRIRERPPRLPRPRPRPTQYPRP: the “shrunken log2 fold change” value was -0.304.

Take RRIRIRPPRLPRPRPRPQHQPRP: the “shrunken log2 fold change” value is -0.344.

In the case of RRIRVRPPRLPRPRPRPFAMPRP, the “shrunken log2 fold change” value was -0.252.

Consider RRIRFRPPRLPRPRPRPILPPRP, for which the “shrunken log2 fold change” value is -0.188.

Regarding RRIRERPPRLPRPRPRPFEAPRP, the “shrunken log2 fold change” value is -0.342.

As to RRIRMRPPRLPRPRPRPVGTPRP, the “shrunken log2 fold change” value was 0.477.

In the case of RRIRHRPPRLPRPRPRPAHKPRP, the “shrunken log2 fold change” value is -0.0386.

As for RRIRFRPPRLPRPRPRPEFSPRP, the “shrunken log2 fold change” value is 0.0686.

Turning to RRIRLRPPRLPRPRPRPSAPPRP, the “shrunken log2 fold change” value came to 0.054.

Take RRIRIRPPRLPRPRPRPIEIPRP: the “shrunken log2 fold change” value is -0.437.

Turning to RRIRYRPPRLPRPRPRPKQAPRP, the “shrunken log2 fold change” value is 0.0341.

With RRIRARPPRLPRPRPRPWPLPRP, the “shrunken log2 fold change” value is -0.0297.

On to RRIRGRPPRLPRPRPRPHSRPRP, for which the “shrunken log2 fold change” value stood at 0.26.

RRIRKRPPRLPRPRPRPHIGPRP: the “shrunken log2 fold change” value was -0.0664.

With RRIRQRPPRLPRPRPRPMSDPRP, the “shrunken log2 fold change” value is -0.0194.

For the sequence RRIRDRPPRLPRPRPRPRTKPRP, the “shrunken log2 fold change” value was found to be 0.16.

In the case of RRIRGRPPRLPRPRPRPGNDPRP, the “shrunken log2 fold change” value came out at 0.381.

Take RRIRRRPPRLPRPRPRPIVWPRP: the “shrunken log2 fold change” value is 0.0811.

Regarding RRIRSRPPRLPRPRPRPNRMPRP, the “shrunken log2 fold change” value came out at 0.309.

Take RRIRERPPRLPRPRPRPLMKPRP: the “shrunken log2 fold change” value was -0.502.

For the sequence RRIRERPPRLPRPRPRPEGEPRP, the “shrunken log2 fold change” value came to 0.332.

Take RRIRVRPPRLPRPRPRPPALPRP: the “shrunken log2 fold change” value came to 0.189.

For RRIRTRPPRLPRPRPRPNRYPRP, the “shrunken log2 fold change” value was -0.19.

For the sequence RRIRGRPPRLPRPRPRPLAKPRP, the “shrunken log2 fold change” value is 1.29.

Regarding RRIRIRPPRLPRPRPRPKIIPRP, the “shrunken log2 fold change” value is -0.468.

Regarding RRIRARPPRLPRPRPRPQIGPRP, the “shrunken log2 fold change” value was determined as 3.24.

For the sequence RRIRKRPPRLPRPRPRPLSEPRP, the “shrunken log2 fold change” value came out at 0.251.

In the case of RRIRRRPPRLPRPRPRPSRKPRP, the “shrunken log2 fold change” value came out at 0.129.

RRIRHRPPRLPRPRPRPKLFPRP: the “shrunken log2 fold change” value came to 0.0628.

With RRIRNRPPRLPRPRPRPVQTPRP, the “shrunken log2 fold change” value came to 0.12.

As for RRIRKRPPRLPRPRPRPKLAPRP, the “shrunken log2 fold change” value amounted to 1.58.

On to RRIRKRPPRLPRPRPRPSLIPRP, for which the “shrunken log2 fold change” value is -0.0338.

On to RRIRPRPPRLPRPRPRPVFPPRP, for which the “shrunken log2 fold change” value amounted to 0.181.

In the case of RRIRPRPPRLPRPRPRPFFSPRP, the “shrunken log2 fold change” value was -0.0993.

Take RRIRWRPPRLPRPRPRPVRLPRP: the “shrunken log2 fold change” value came to 0.428.

In the case of RRIRMRPPRLPRPRPRPGGSPRP, the “shrunken log2 fold change” value came out at 1.07.

Turning to RRIRFRPPRLPRPRPRPYLVPRP, the “shrunken log2 fold change” value was -0.423.

Turning to RRIRCRPPRLPRPRPRPATDPRP, the “shrunken log2 fold change” value was -0.112.

Consider RRIRQRPPRLPRPRPRPYNVPRP, for which the “shrunken log2 fold change” value was -0.0265.

Turning to RRIRDRPPRLPRPRPRPCDAPRP, the “shrunken log2 fold change” value is -0.0239.

Take RRIRDRPPRLPRPRPRPFPFPRP: the “shrunken log2 fold change” value is -0.163.

On to RRIRYRPPRLPRPRPRPYIEPRP, for which the “shrunken log2 fold change” value was -0.469.

Consider RRIRHRPPRLPRPRPRPDYWPRP, for which the “shrunken log2 fold change” value was -0.187.

In the case of RRIRRRPPRLPRPRPRPVLFPRP, the “shrunken log2 fold change” value is 0.315.

RRIRTRPPRLPRPRPRPTTHPRP: the “shrunken log2 fold change” value is 0.05.

Turning to RRIRARPPRLPRPRPRPKYIPRP, the “shrunken log2 fold change” value is -0.536.

On to RRIRERPPRLPRPRPRPHPTPRP, for which the “shrunken log2 fold change” value amounted to 0.0575.

With RRIRDRPPRLPRPRPRPPMCPRP, the “shrunken log2 fold change” value was -0.0883.

As to RRIRNRPPRLPRPRPRPCAAPRP, the “shrunken log2 fold change” value was 0.0594.

Consider RRIRMRPPRLPRPRPRPKGIPRP, for which the “shrunken log2 fold change” value came to 0.0647.

On to RRIRYRPPRLPRPRPRPFRPPRP, for which the “shrunken log2 fold change” value is -0.0325.

Regarding RRIRVRPPRLPRPRPRPLHCPRP, the “shrunken log2 fold change” value was 0.238.

For the sequence RRIRSRPPRLPRPRPRPKGNPRP, the “shrunken log2 fold change” value was -0.144.

In the case of RRIRLRPPRLPRPRPRPTSNPRP, the “shrunken log2 fold change” value is -0.576.

As to RRIRKRPPRLPRPRPRPYRQPRP, the “shrunken log2 fold change” value is -0.122.

For the sequence RRIRARPPRLPRPRPRPMMHPRP, the “shrunken log2 fold change” value came to 0.184.

As for RRIRVRPPRLPRPRPRPVMMPRP, the “shrunken log2 fold change” value is -0.938.

For the sequence RRIRPRPPRLPRPRPRPKNIPRP, the “shrunken log2 fold change” value is -0.719.

For RRIRGRPPRLPRPRPRPIQPPRP, the “shrunken log2 fold change” value was found to be 0.46.

As for RRIRIRPPRLPRPRPRPRWLPRP, the “shrunken log2 fold change” value came to 0.119.

In the case of RRIRLRPPRLPRPRPRPDLDPRP, the “shrunken log2 fold change” value was -0.0167.

Consider RRIRNRPPRLPRPRPRPPWMPRP, for which the “shrunken log2 fold change” value is -0.00995.

As to RRIRYRPPRLPRPRPRPGWTPRP, the “shrunken log2 fold change” value is -0.103.

For the sequence RRIRWRPPRLPRPRPRPNAGPRP, the “shrunken log2 fold change” value is -0.00207.

As to RRIRLRPPRLPRPRPRPEIQPRP, the “shrunken log2 fold change” value is -0.0217.

With RRIRFRPPRLPRPRPRPNFNPRP, the “shrunken log2 fold change” value was -0.554.
